# Legend:
# [1] = tested on: RELA (p65) subunit of heterodimer;p50 subunit (Homo sapiens;Homo sapiens); assay: EMSA-Seq; conditions: Footprinting/EMSA: 10 mM Tris pH 7.4, 75 mM NaCl, 1 mM EDTA, 1 mM DTT, 200 ug/ml BSA, 0.005% NP-40, EMSA-Seq: 12 mM HEPES pH 7.8, 75 mM KCl, 4 mM …
# [2] = tested on: RELARELA (p65 homodimer) (Homo sapiens); assay: EMSA-Seq; conditions: Footprinting/EMSA: 10 mM Tris pH 7.4, 75 mM NaCl, 1 mM EDTA, 1 mM DTT, 200 ug/ml BSA, 0.005% NP-40, EMSA-Seq: 12 mM HEPES pH 7.8, 75 mM KCl, 4 mM …
# [3] = tested on: RELA (p65) subunit of heterodimer;p52 subunit (Homo sapiens;Homo sapiens); assay: EMSA-Seq; conditions: Footprinting/EMSA: 10 mM Tris pH 7.4, 75 mM NaCl, 1 mM EDTA, 1 mM DTT, 200 ug/ml BSA, 0.005% NP-40, EMSA-Seq: 12 mM HEPES pH 7.8, 75 mM KCl, 4 mM …
# [4] = target: RELA (p65) subunit of heterodimer;p50 subunit (Homo sapiens;Homo sapiens) (UniProt Q04206+P19838); assay: footprint; conditions: UV laser footprinting: 10 mM Tris pH 7.4, 75 mM NaCl, 1 mM EDTA, 1 mM DTT, 200 ug/ml BSA, 0.005% NP-40; microarray buffer in Additional file 1 (not seen); low values mean tight binding
# [5] = target: RELARELA (p65 homodimer) (Homo sapiens) (UniProt Q04206); assay: footprint; conditions: UV laser footprinting: 10 mM Tris pH 7.4, 75 mM NaCl, 1 mM EDTA, 1 mM DTT, 200 ug/ml BSA, 0.005% NP-40; microarray buffer in Additional file 1 (not seen); low values mean tight binding
# [6] = target: RELA (p65) subunit of heterodimer;p52 subunit (Homo sapiens;Homo sapiens) (UniProt Q04206+Q00653); assay: footprint; conditions: UV laser footprinting: 10 mM Tris pH 7.4, 75 mM NaCl, 1 mM EDTA, 1 mM DTT, 200 ug/ml BSA, 0.005% NP-40; microarray buffer in Additional file 1 (not seen); low values mean tight binding
# [7] = tested on: RELA (p65) subunit of heterodimer;p50 subunit (Homo sapiens;Homo sapiens); assay: UV laser footprinting; conditions: Footprinting/EMSA: 10 mM Tris pH 7.4, 75 mM NaCl, 1 mM EDTA, 1 mM DTT, 200 ug/ml BSA, 0.005% NP-40, EMSA-Seq: 12 mM HEPES pH 7.8, 75 mM KCl, 4 mM …
# [8] = tested on: RELARELA (p65 homodimer) (Homo sapiens); assay: UV laser footprinting; conditions: Footprinting/EMSA: 10 mM Tris pH 7.4, 75 mM NaCl, 1 mM EDTA, 1 mM DTT, 200 ug/ml BSA, 0.005% NP-40, EMSA-Seq: 12 mM HEPES pH 7.8, 75 mM KCl, 4 mM …
# [9] = tested on: RELA (p65) subunit of heterodimer;p52 subunit (Homo sapiens;Homo sapiens); assay: UV laser footprinting; conditions: Footprinting/EMSA: 10 mM Tris pH 7.4, 75 mM NaCl, 1 mM EDTA, 1 mM DTT, 200 ug/ml BSA, 0.005% NP-40, EMSA-Seq: 12 mM HEPES pH 7.8, 75 mM KCl, 4 mM …
# [10] = tested on: RELA (p65) subunit of heterodimer;p50 subunit (Homo sapiens;Homo sapiens); assay: protein binding microarray; conditions: Footprinting/EMSA: 10 mM Tris pH 7.4, 75 mM NaCl, 1 mM EDTA, 1 mM DTT, 200 ug/ml BSA, 0.005% NP-40, EMSA-Seq: 12 mM HEPES pH 7.8, 75 mM KCl, 4 mM …
# [11] = tested on: RELARELA (p65 homodimer) (Homo sapiens); assay: protein binding microarray; conditions: Footprinting/EMSA: 10 mM Tris pH 7.4, 75 mM NaCl, 1 mM EDTA, 1 mM DTT, 200 ug/ml BSA, 0.005% NP-40, EMSA-Seq: 12 mM HEPES pH 7.8, 75 mM KCl, 4 mM …
# [12] = tested on: RELA (p65) subunit of heterodimer;p52 subunit (Homo sapiens;Homo sapiens); assay: protein binding microarray; conditions: Footprinting/EMSA: 10 mM Tris pH 7.4, 75 mM NaCl, 1 mM EDTA, 1 mM DTT, 200 ug/ml BSA, 0.005% NP-40, EMSA-Seq: 12 mM HEPES pH 7.8, 75 mM KCl, 4 mM …
# Chain of RELA (p65) subunit of heterodimer;p52 subunit (Homo sapiens;Homo sapiens) (UniProt Q04206+Q00653) (Q04206 1-307, chain 1 of 2): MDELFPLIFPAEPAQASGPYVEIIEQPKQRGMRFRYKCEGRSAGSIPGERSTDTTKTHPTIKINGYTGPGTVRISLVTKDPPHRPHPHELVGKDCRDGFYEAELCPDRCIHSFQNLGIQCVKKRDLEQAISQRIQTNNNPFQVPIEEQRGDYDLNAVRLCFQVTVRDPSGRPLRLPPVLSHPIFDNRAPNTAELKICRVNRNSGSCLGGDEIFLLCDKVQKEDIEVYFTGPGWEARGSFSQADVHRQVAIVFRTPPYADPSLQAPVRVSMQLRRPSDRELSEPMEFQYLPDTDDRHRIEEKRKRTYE
# Chain of RELA (p65) subunit of heterodimer;p52 subunit (Homo sapiens;Homo sapiens) (UniProt Q04206+Q00653) (Q00653 4-332, chain 2 of 2): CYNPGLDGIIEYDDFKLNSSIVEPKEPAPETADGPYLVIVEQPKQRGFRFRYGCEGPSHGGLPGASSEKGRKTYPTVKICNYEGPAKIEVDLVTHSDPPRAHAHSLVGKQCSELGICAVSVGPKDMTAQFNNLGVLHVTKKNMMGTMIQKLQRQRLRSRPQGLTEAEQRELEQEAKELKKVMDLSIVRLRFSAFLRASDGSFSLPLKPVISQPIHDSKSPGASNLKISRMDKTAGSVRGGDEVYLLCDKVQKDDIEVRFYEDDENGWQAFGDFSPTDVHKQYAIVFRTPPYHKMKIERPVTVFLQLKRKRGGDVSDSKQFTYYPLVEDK
# Chain of RELA (p65) subunit of heterodimer;p50 subunit (Homo sapiens;Homo sapiens) (UniProt Q04206+P19838) (Q04206 1-307, chain 1 of 2): as the sequence (Q04206 1-307, chain 1 of 2) above
# Chain of RELA (p65) subunit of heterodimer;p50 subunit (Homo sapiens;Homo sapiens) (UniProt Q04206+P19838) (P19838 7-356, chain 2 of 2): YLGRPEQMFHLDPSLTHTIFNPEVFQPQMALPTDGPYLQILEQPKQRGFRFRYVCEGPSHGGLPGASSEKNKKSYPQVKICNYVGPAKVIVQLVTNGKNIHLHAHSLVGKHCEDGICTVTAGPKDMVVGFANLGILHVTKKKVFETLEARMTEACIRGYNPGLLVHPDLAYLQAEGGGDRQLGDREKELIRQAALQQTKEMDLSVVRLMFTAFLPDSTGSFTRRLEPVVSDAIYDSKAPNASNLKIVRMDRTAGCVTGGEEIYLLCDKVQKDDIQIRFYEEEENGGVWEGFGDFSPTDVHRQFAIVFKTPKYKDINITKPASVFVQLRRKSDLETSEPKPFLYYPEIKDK
# Chain of RELARELA (p65 homodimer) (Homo sapiens) (UniProt Q04206) (Q04206 1-307): as the sequence (Q04206 1-307, chain 1 of 2) above
Sequence,binding signal [1] [z-score],binding signal [3] [z-score],Kd [7] [µM],Kd [9] [µM],also measured
AGGAAATTCCG 11-mer in EMSA-Seq ligands,20.4,13,,,binding signal [2]: 40.9 z-score
AGGAAATTCCG (double strand),,,,,"binding signal (Kd, unit not seen) [4]: 4.6; binding signal (Kd, unit not seen) [5]: 3.25; binding signal (Kd, unit not seen) [6]: 1.7"
AGGAAATTCCG footprint probe,,,0.0046,0.0017,Kd [8]: 0.00325 µM
AGGAAATTCCG microarray probes,,,,,binding signal [10]: 1.2 z-score; binding signal [11]: 3.7 z-score; binding signal [12]: 0.55 z-score
AGGGGAAGTTA 11-mer in EMSA-Seq ligands,35.4,27.5,,,binding signal [2]: 3.78 z-score
AGGGGAAGTTA footprint probe,,,0.026,0.02,
AGGGGGATCTG 11-mer in EMSA-Seq ligands,23.1,18.4,,,
AGGGGGATCTG (double strand),,,,,"binding signal (Kd, unit not seen) [4]: 10.5; binding signal (Kd, unit not seen) [6]: 2"
AGGGGGATCTG footprint probe,,,0.0105,0.002,
AGGGGGATCTG microarray probes,,,,,binding signal [10]: 2.39 z-score; binding signal [12]: 1.76 z-score
CTGGGGATTTA 11-mer in EMSA-Seq ligands,24.2,19.5,,,binding signal [2]: 10.8 z-score
CTGGGGATTTA footprint probe,,,0.016,0.0138,

# Reference: publication PMC3218832
